Assays:
[1] = target: the molecule itself; assay: native gel or EMSA; 4-16% Native-PAGE gel stained with coomassie
[2] = target: the molecule itself; assay: glycerol gradient ultracentrifugation; 5-40% glycerol gradient, 35 mM sodium phosphate buffer, 300 mM NaCl, 1 mM DTT, 4°C, 15 hr; tetramer to dimers
[3] = target: taxol-stabilised microtubules; assay: co-sedimentation; microtubule sedimentation, 15 nM tetrameric hKif15 with 30 nM dimeric hTpx2, AMP-PNP, 35 mM sodium phosphate buffer pH 7.0, 1 mM MgCl2, 1 mM EGTA, 1 mM DTT, 20 min at room temperature; conditions: both partners purified
[4] = target: the molecule itself; assay: glycerol gradient ultracentrifugation; 5-40% glycerol gradient, 35 mM sodium phosphate buffer, 0-150 mM NaCl, 1 mM DTT, 4°C, 15 hr; apparent sedimentation coefficients

taxol-stabilised microtubules, sequence (chain, as listed by the source, chain 1 of 2): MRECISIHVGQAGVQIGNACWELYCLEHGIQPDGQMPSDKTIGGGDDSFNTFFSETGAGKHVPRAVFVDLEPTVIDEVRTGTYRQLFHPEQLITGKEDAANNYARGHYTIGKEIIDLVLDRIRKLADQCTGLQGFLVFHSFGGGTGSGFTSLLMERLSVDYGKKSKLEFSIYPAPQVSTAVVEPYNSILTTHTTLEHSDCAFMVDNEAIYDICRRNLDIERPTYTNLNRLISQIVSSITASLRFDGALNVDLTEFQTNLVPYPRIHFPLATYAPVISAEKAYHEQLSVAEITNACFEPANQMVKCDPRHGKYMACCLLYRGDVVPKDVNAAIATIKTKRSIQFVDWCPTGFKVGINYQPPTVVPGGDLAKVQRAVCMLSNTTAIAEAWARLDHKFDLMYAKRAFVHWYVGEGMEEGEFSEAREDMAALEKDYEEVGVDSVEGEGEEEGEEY
taxol-stabilised microtubules, sequence (chain, as listed by the source, chain 2 of 2): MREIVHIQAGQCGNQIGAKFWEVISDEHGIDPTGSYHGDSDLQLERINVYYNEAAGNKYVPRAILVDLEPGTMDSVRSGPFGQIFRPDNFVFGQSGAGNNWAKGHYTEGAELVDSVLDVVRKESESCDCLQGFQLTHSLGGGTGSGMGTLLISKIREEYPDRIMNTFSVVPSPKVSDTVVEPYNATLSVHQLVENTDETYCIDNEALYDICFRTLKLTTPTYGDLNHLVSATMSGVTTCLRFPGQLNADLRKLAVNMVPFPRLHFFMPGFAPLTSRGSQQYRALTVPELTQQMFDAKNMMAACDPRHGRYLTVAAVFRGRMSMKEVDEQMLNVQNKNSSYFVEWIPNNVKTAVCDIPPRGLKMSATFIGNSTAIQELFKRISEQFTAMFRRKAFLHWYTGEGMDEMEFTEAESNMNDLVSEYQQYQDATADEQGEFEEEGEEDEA

Binder | stoichiometry N [1] | stoichiometry N [2] | KD with 30 nM dimeric hTpx2 [3] | stoichiometry N [4]
Full-length human His6-Kif15 (natural protein, UniProt Q9NS87 1-1388, looked up, Kinesin-12 Kif15 (hKlp2), human; complete ORF amplified from a cDNA library of hTERT-RPE1 cells; predicted molecular weight of His6-hKif15 164.8 kDa; A TEV cleavage site lies between His6 and the ORF (His6/TEV element of p11 in a modified pIEx/Bac1 vector); no cleavage is described; Tetramer at physiological ionic strength, dimer at 300 mM NaCl; also called hKif15; His6-hKif15; source: insect SF9 …) MAPGCKTELRSVTNGQSNQPSNEGDAIKVFVRIRPPAERSGSADGEQNLCLSVLSSTSLRLHSNPEPKTFTFDHVADVDTTQESVFATVAKSIVESCMSGYNGTIFAYGQTGSGKTFTMMGPSESDNFSHNLRGVIPRSFEYLFSLIDREKEKAGAGKSFLCKCSFIEIYNEQIYDLLDSASAGLYLREHIKKGVFVVGAVEQVVTSAAEAYQVLSGGWRNRRVASTSMNRESSRSHAVFTITIESMEKSNEIVNIRTSLLNLVDLAGSERQKDTHAEGMRLKEAGNINRSLSCLGQVITALVDVGNGKQRHVCYRDSKLTFLLRDSLGGNAKTAIIANVHPGSRCFGETLSTLNFAQRAKLIKNKAVVNEDTQGNVSQLQAEVKRLKEQLAELASGQTPPESFLTRDKKKTNYMEYFQEAMLFFKKSEQEKKSLIEKVTQLEDLTLKKEKFIQSNKMIVKFREDQIIRLEKLHKESRGGFLPEEQDRLLSELRNEIQTLREQIEHHPRVAKYAMENHSLREENRRLRLLEPVKRAQEMDAQTIAKLEKAFSEISGMEKSDKNQQGFSPKAQKEPCLFANTEKLKAQLLQIQTELNNSKQEYEEFKELTRKRQLELESELQSLQKANLNLENLLEATKACKRQEVSQLNKIHAETLKIITTPTKAYQLHSRPVPKLSPEMGSFGSLYTQNSSILDNDILNEPVPPEMNEQAFEAISEELRTVQEQMSALQAKLDEEEHKNLKLQQHVDKLEHHSTQMQELFSSERIDWTKQQEELLSQLNVLEKQLQETQTKNDFLKSEVHDLRVVLHSADKELSSVKLEYSSFKTNQEKEFNKLSERHMHVQLQLDNLRLENEKLLESKACLQDSYDNLQEIMKFEIDQLSRNLQNFKKENETLKSDLNNLMELLEAEKERNNKLSLQFEEDKENSSKEILKVLEAVRQEKQKETAKCEQQMAKVQKLEESLLATEKVISSLEKSRDSDKKVVADLMNQIQELRTSVCEKTETIDTLKQELKDINCKYNSALVDREESRVLIKKQEVDILDLKETLRLRILSEDIERDMLCEDLAHATEQLNMLTEASKKHSGLLQSAQEELTKKEALIQELQHKLNQKKEEVEQKKNEYNFKMRQLEHVMDSAAEDPQSPKTPPHFQTHLAKLLETQEQEIEDGRASKTSLEHLVTKLNEDREVKNAEILRMKEQLREMENLRLESQQLIEKNWLLQGQLDDIKRQKENSDQNHPDNQQLKNEQEESIKERLAKSKIVEEMLKMKADLEEVQSALYNKEMECLRMTDEVERTQTLESKAFQEKEQLRSKLEEMYEERERTSQEMEMLRKQVECLAEENGKLVGHQNLHQKIQYVVRLKKENVRLAEETEKLRAENVFLKEKKRSES | 4 | 2 | 490 nM | 
Full-length human His6-Kif15-eGFP (natural protein, UniProt Q9NS87 1-1388, looked up, Kinesin-12 Kif15 (hKlp2), human; complete ORF from a cDNA library of hTERT-RPE1 cells, eGFP inserted via AscI/NotI behind the ORF; His6/TEV element before the ORF as in m1; also called hKif15-eGFP; His6-hKif15-eGFP; source: insect SF9 cells (baculovirus), purified (SP-sepharose cation exchange, then Talon/Co-NTA); not shown: His6, N-terminal, kept; eGFP, C-terminal, kept) MAPGCKTELRSVTNGQSNQPSNEGDAIKVFVRIRPPAERSGSADGEQNLCLSVLSSTSLRLHSNPEPKTFTFDHVADVDTTQESVFATVAKSIVESCMSGYNGTIFAYGQTGSGKTFTMMGPSESDNFSHNLRGVIPRSFEYLFSLIDREKEKAGAGKSFLCKCSFIEIYNEQIYDLLDSASAGLYLREHIKKGVFVVGAVEQVVTSAAEAYQVLSGGWRNRRVASTSMNRESSRSHAVFTITIESMEKSNEIVNIRTSLLNLVDLAGSERQKDTHAEGMRLKEAGNINRSLSCLGQVITALVDVGNGKQRHVCYRDSKLTFLLRDSLGGNAKTAIIANVHPGSRCFGETLSTLNFAQRAKLIKNKAVVNEDTQGNVSQLQAEVKRLKEQLAELASGQTPPESFLTRDKKKTNYMEYFQEAMLFFKKSEQEKKSLIEKVTQLEDLTLKKEKFIQSNKMIVKFREDQIIRLEKLHKESRGGFLPEEQDRLLSELRNEIQTLREQIEHHPRVAKYAMENHSLREENRRLRLLEPVKRAQEMDAQTIAKLEKAFSEISGMEKSDKNQQGFSPKAQKEPCLFANTEKLKAQLLQIQTELNNSKQEYEEFKELTRKRQLELESELQSLQKANLNLENLLEATKACKRQEVSQLNKIHAETLKIITTPTKAYQLHSRPVPKLSPEMGSFGSLYTQNSSILDNDILNEPVPPEMNEQAFEAISEELRTVQEQMSALQAKLDEEEHKNLKLQQHVDKLEHHSTQMQELFSSERIDWTKQQEELLSQLNVLEKQLQETQTKNDFLKSEVHDLRVVLHSADKELSSVKLEYSSFKTNQEKEFNKLSERHMHVQLQLDNLRLENEKLLESKACLQDSYDNLQEIMKFEIDQLSRNLQNFKKENETLKSDLNNLMELLEAEKERNNKLSLQFEEDKENSSKEILKVLEAVRQEKQKETAKCEQQMAKVQKLEESLLATEKVISSLEKSRDSDKKVVADLMNQIQELRTSVCEKTETIDTLKQELKDINCKYNSALVDREESRVLIKKQEVDILDLKETLRLRILSEDIERDMLCEDLAHATEQLNMLTEASKKHSGLLQSAQEELTKKEALIQELQHKLNQKKEEVEQKKNEYNFKMRQLEHVMDSAAEDPQSPKTPPHFQTHLAKLLETQEQEIEDGRASKTSLEHLVTKLNEDREVKNAEILRMKEQLREMENLRLESQQLIEKNWLLQGQLDDIKRQKENSDQNHPDNQQLKNEQEESIKERLAKSKIVEEMLKMKADLEEVQSALYNKEMECLRMTDEVERTQTLESKAFQEKEQLRSKLEEMYEERERTSQEMEMLRKQVECLAEENGKLVGHQNLHQKIQYVVRLKKENVRLAEETEKLRAENVFLKEKKRSES |  |  |  | 4
